{"source": "paper PMC2989460", "biological_target": "anaphase-promoting complex/cyclosome (APC/C), human (human (endogenous in HeLa)) (UniProt Q9H1A4)", "sequence (Q9H1A4 whole entry, looked up, one chain of several)": "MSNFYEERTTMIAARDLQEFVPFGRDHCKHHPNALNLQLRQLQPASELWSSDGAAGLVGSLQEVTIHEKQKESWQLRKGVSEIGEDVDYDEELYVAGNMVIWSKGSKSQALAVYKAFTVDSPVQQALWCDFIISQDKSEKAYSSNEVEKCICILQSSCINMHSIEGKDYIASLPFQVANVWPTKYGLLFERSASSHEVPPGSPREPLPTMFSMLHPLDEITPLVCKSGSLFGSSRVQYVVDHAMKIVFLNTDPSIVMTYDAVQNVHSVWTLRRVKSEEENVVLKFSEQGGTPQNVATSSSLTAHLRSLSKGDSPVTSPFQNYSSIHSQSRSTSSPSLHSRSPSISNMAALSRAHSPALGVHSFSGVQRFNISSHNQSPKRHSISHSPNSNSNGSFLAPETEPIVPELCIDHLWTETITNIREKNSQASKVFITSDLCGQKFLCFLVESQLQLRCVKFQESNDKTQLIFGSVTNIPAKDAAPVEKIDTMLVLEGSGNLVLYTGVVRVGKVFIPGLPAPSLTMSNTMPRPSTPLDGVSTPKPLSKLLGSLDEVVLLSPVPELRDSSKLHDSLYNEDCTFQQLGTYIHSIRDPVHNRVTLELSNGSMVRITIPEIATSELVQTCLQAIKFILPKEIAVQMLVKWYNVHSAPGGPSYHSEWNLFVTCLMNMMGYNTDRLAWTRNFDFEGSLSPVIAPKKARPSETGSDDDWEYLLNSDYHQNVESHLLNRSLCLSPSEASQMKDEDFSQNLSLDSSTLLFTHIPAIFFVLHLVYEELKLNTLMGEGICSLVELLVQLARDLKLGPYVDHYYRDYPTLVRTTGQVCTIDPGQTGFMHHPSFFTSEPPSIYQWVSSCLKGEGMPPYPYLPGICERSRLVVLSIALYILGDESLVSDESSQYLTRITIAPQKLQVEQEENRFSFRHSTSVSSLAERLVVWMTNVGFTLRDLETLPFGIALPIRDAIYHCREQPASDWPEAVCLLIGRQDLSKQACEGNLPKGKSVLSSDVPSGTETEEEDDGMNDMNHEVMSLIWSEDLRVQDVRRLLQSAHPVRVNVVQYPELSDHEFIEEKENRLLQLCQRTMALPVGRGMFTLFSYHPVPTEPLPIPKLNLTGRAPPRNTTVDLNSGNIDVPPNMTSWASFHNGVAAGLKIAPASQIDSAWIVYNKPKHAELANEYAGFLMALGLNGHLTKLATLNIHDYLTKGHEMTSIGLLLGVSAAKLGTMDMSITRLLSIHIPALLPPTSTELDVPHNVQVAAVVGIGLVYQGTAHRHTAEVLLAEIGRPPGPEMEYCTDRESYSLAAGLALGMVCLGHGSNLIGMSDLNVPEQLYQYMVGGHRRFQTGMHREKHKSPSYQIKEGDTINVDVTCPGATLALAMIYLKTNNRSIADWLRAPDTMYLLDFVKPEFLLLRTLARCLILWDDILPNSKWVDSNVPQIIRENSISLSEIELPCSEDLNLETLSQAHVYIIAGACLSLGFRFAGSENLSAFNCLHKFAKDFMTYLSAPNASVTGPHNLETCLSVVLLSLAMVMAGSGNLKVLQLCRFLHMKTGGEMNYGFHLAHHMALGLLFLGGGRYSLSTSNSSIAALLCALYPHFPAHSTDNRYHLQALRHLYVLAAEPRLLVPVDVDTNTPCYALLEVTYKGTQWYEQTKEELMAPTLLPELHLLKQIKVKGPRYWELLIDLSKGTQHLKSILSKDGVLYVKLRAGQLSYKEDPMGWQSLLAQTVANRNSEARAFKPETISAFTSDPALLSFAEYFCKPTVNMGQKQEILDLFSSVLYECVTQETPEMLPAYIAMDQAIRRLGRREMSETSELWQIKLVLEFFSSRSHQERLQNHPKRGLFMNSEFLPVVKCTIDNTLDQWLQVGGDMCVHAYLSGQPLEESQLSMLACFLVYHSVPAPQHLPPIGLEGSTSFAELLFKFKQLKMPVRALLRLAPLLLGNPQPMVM", "experiment": "cryo-EM structure"}
{"substance": "recombinant Cdc20 (from UniProt Q12834 1-499) (natural protein)", "values": [{"measurement": "percent of APC/C molecules with the additional Cdc20 mass", "result": 30, "unit": "%"}]}
